Measurements published in paper PMC4896055 (The Journal of Cell Biology, 2016).

B3: Recombinant Mdm36, His6-T7-Mdm36 (natural protein)
chain: MDENGTVKPGYELKGLNSGNSRSNMDKDPIVSKFHRAGLNDSADEEDTDINGNRNTSWITSMISEEKRKVEGKSMLNDEEDLHLSKATLNKCDALVKILADIIKLEFVIHQSWYIRSLHKSVLIQFEVETSGGNKNSAGDSGDDDDDNHNGNLDDSFYKDLSLKCIKKCEKSSLALESLSRDIDQIRDFIMSNTIEDNRVDRLLQNSMTLLLECWIYSMKRLRRLRMKIAGIFVRSKLLLIDHELVTIWHFLQEQNEHETVNNENELKLAETIKSYRAFIKIFIQQLEDSESGSPSSSLFEECLHVFLDIESMYNSLNLNWLLNENKALQERLLSPSSTSENDHTNNLPVIDETKEIEDISSFVNSIVDASMLTHDLTPINSSDSDNLSNGEIDRLDGRRLSSSTSDMSLMMQRTSLQKQLPSLLTAFNNARRLEQELQNACKVNDNKHSTKDTDSNIRRNEHAMSSSVSSIISQNSTLASPSPPMSSSFISTAPSQSSSRMSTLPLSPSSSLLESQSQTLKNNMSQWLNQSRSGLNGTKLIPTNHIGFHSNVLNTLYGIGGGPVSKSYKSNQPSSQNT

Tests used:
[1] = biological target: B3; assay: co-sedimentation
SEC-MALS = biological target: the molecule itself; assay: SEC-MALS

B1: Recombinant Num1CC (amino acids 97-294), His6-T7-Num1CC (domain or fragment)
chain: MNFTLELSENLLVECRKLQSSNEAKNEQIKSLKQIKESLSDKIEELTNQKKSFMKELDSTKDLNWDLESKLTNLSMECRQLKELKKKTEKSWNDEKESLKLLKTDLEILTLTKNGMENDLSSQKLHYDKEISELKERILDLNNENDRLLISVSDLTSEINSLQSNRTERIKIQKQLDDAKASISSLKRKVQKKYYQKQ
For B1, the binding result [1] was “binds” and the “stoichiometry N” value (SEC-MALS) was 2.

B2: Recombinant Num1CC^3E (K121E + R262E + R265E), His6-T7-Num1CC^3E (domain or fragment)
chain: MNFTLELSENLLVECRKLQSSNEAENEQIKSLKQIKESLSDKIEELTNQKKSFMKELDSTKDLNWDLESKLTNLSMECRQLKELKKKTEKSWNDEKESLKLLKTDLEILTLTKNGMENDLSSQKLHYDKEISELKERILDLNNENDRLLISVSDLTSEINSLQSNETEEIKIQKQLDDAKASISSLKRKVQKKYYQKQ
B2: binds [1].

For B3, the “stoichiometry N” value (SEC-MALS) was 2.
